Patent US20220153832A1 (PIONYR IMMUNOTHERAPEUTICS, published 2022)

T1: Mouse MARCO, full length, on cells (mouse, UniProt Q60754 1-518)
T1 construct: whole, on cells; the cell type is named under assay; also called muMARCO; MuMARCO
T1 sequence (looked up): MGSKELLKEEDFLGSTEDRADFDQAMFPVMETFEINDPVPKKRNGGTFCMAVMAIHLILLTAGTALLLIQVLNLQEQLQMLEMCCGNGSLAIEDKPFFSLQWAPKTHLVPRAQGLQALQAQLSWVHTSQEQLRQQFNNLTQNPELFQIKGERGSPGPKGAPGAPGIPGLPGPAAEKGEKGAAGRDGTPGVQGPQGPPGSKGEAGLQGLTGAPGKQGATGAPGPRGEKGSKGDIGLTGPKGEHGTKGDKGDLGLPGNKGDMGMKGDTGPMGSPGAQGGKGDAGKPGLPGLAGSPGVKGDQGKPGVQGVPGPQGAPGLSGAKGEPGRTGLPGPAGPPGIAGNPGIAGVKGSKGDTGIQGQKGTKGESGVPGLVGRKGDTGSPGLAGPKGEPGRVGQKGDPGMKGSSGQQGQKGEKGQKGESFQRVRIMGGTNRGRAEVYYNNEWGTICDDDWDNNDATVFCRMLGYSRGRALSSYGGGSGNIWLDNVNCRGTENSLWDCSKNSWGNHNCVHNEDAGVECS

T2: N-terminal his-tagged mouse MARCO protein, recombinant (mouse, UniProt Q60754 150-518)
T2 construct: The entry holds the His tag, the CLD and the SRCR domain; also called mMARCO (RG3016); PI-RG-3016
T2 sequence: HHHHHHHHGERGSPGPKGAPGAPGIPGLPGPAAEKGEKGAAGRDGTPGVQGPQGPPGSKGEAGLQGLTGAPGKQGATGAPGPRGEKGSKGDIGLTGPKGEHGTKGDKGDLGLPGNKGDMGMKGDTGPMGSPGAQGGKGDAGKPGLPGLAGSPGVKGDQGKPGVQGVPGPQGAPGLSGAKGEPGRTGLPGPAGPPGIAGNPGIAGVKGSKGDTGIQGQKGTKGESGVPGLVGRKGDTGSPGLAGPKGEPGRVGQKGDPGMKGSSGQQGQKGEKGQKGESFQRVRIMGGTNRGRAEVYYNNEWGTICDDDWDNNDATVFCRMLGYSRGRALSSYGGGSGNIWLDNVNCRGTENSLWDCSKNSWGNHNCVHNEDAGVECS

T3: hMARCO(His-CLD-SRCR) (RG3033) (human, UniProt Q9UEW3 147-520)
T3 construct: also called wild type hMARCO
T3 sequence: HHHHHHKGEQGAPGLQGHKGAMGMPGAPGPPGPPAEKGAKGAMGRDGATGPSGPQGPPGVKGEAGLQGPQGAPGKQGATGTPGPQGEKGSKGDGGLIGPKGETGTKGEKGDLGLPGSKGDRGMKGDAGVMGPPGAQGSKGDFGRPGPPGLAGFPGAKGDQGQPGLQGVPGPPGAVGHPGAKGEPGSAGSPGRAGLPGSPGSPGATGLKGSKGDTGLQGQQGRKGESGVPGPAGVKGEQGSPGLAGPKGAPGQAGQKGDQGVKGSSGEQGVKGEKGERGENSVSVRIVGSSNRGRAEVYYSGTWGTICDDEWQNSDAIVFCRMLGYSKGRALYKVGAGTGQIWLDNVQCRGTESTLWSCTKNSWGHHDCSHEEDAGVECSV


Tests used:
[1] = molecular target: T1, Mouse MARCO, full length, on cells; assay: competition with AF488 E. coli binding to muMARCO 293T cells, flow cytometry
[2] = molecular target: T2, N-terminal his-tagged mouse MARCO …; assay: ELISA on mMARCO ECD with 2 mM Ca2+, A450-A620
[3] = molecular target: T1, Mouse MARCO, full length, on cells; assay: flow cytometry, 293T (muMARCO)
[4] = molecular target: T2, N-terminal his-tagged mouse MARCO …; assay: Biacore
hVar3 (RG3036) = molecular target: T4, hVar3 (RG3036) (human, UniProt Q9UEW3 147-520); assay: ELISA on recombinant hVar3 protein, A450
T4 construct: Human MARCO His-CLD-SRCR with Q452D, Y472S and K473S (already in the entry); also called recombinant human SRCR MARCO hVar3 protein

[5] = molecular target: T3, hMARCO(His-CLD-SRCR) (RG3033); assay: ProbeLife Gator study, statement on the loaded antibodies
In short: (§1)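 Antibody pairing on MARCO was assessed by biolayer interferometry on ProbeLife probes. In tandem format, 200 nM His-tagged MARCO was loaded on anti-His probes for 120 s, then a 60 s baseline, a first antibody at 200 nM, then a second antibody at 100-200 nM. In sandwich format, the first antibody (200 nM) was captured on anti-Fc probes for 120 s, followed by 200 nM MARCO and then the second antibody (200 nM), each for 120 s.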

[6] = molecular target: T2, N-terminal his-tagged mouse MARCO …; assay: as above
In short: as §1

EC50 [1] | EC50 (read off the curve) [2] | EC50 [3] | Kd [4] | binding result (hVar3 (RG3036)) | binding result [5] | binding result [6] | Binder
1.81 nM | ~0.07 nM | 1.1 nM | < 0.02 nM | no binding (tested: 20 nM) | – | – | PI-3008-AB (antibody, mouse IgG2a, kappa, V domains shown, Recombinant anti-mouse MARCO antibody with mouse IgG2a Fc, from PI-HX-3016) VH: EVQLVESGGGLVKPGASLKLSCVASGFTFSDDWMNWVRQTPGKAMEWIGDIKYDGSYTNYVPSLKNRLTISRDNAKNTLYLQMTNVRSEDTATYYCTSGGVFDYWGQGVMVTVSS VL: EIVLSQSPTTMAASPGEKVTITCRASSSVSYMHWFQQKSGTSPKPWIYDTSKLASGVPDRFSGSGSGTSYSLTISSMEAEDAATYYCLQRSGYPPTFGAGTKLEVKR
– | – | – | – | binds | binds | binds | PI-3035-AB (antibody, mouse IgG2a, kappa, V domains shown, Mouse IgG2a chimera derived from PI-HX-3092; also called HX3092 (A mutation) - mIgG2a) VH: QVQLKESGPGLVQPSQTLSLTCTVSGFSLTSYTLSWVRQPPGKGLEWIGAIWGGDNTDYNSALKSRLSISRDTSKSQVLLKMNSLQTEDTAIYFCTRELGGSFDYWGQGVMVTVSS VL: DIQMTQSPPVLSASVGDRVTLSCKTSQNINKKLDWYQQKHGEAPKLLIYYTNNLQTGIPSRFSGSGSGTDFTLTISTLQPEDVATYYCYQYDSGFTFGAGTKLELKR
